Among the data in doi:10.1101/2020.03.29.013490 are Kd values, retold here.

Test [1] has as its target recombinant human angiotensin-converting enzyme-2 (ACE2) (human) (UniProt Q9BYF1). The experiment in a line: BLI. (In general: BLI is a label-free optical method that tracks binding on a fibre tip over time.)
Test [2] concerns the target 2019-nCoV spike 1 protein (S1) (2019-nCoV (SARS-CoV-2)). In words: BLI.

Chain of recombinant human angiotensin-converting enzyme-2 (ACE2) (human) (Q9BYF1 18-740): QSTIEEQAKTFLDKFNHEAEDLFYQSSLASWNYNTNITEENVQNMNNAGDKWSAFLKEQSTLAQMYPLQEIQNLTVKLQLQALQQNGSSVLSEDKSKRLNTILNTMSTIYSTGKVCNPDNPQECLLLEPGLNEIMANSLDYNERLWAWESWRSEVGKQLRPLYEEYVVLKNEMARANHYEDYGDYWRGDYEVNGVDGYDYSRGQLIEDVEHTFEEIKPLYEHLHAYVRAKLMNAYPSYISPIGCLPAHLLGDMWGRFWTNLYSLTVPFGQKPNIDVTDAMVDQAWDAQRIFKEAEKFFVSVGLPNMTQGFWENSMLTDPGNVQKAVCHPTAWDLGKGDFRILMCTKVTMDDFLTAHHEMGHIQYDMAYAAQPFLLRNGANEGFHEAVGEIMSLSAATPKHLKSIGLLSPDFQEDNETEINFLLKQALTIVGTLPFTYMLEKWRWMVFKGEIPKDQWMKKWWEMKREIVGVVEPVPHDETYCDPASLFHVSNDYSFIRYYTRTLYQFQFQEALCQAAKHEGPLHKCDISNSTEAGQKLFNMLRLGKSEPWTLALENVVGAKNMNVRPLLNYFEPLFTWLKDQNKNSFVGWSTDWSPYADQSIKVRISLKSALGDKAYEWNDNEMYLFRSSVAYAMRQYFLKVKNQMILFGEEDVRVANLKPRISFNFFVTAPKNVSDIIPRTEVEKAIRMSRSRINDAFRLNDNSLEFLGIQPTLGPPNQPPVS
Chain of human defensin 5 (HD5) (Q01523 63-94): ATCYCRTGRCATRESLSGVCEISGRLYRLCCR

A word on the Kd: it is the free concentration of one partner at which half of the binding sites on the other are occupied at equilibrium, for simple one-to-one binding. With “2019-nCoV spike 1 protein (S1) (domain or fragment)”, the Kd in test [1] amounted to 2.68 nM.
In the case of “human defensin 5 (HD5) (from UniProt Q01523 63-94) (peptide)”, the dissociation constant (Kd) in test [1] worked out at 39.3 nM; in test [2], 82.8 nM.
